B1: PTPRD (parent)
chain: PVVSMDLDPQPITDEEEGLIWVVG

Variants of: B1
Assay: protein stability index of a GFP-peptide fusion (GPS, HEK-293T) (PSI 1-6); higher = more stable
Details: c terminus: a fixed tail appended
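Note: lentivirally expressed fusions sorted by FACS into six bins by GFP to DsRed ratio, PSI derived from sequencing read proportions per bin multiplied by bin number.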

| Variant | protein stability index |
| --- | --- |
| PVVSMVLDPQPITDEEEGLIWVVG | 2.7 |
| PVVSMTLDPQPITDEEEGLIWVVG | 3.25 |
| PVVSMHLDPQPITDEEEGLIWVVG | 3.24 |
| PVVSMLLDPQPITDEEEGLIWVVG | 3.35 |
| PVVSMPLDPQPITDEEEGLIWVVG | 3.48 |
| PVVSMALDPQPITDEEEGLIWVVG | 4.22 |
| PVVSMELDPQPITDEEEGLIWVVG | 4.24 |
| PVVSMCLDPQPITDEEEGLIWVVG | 3.6 |
| PVVSMQLDPQPITDEEEGLIWVVG | 3.5 |
| PVVSMKLDPQPITDEEEGLIWVVG | 2.99 |
| PVVSMSLDPQPITDEEEGLIWVVG | 3.4 |
| PVVSMWLDPQPITDEEEGLIWVVG | 1.94 |
| PVVSMNLDPQPITDEEEGLIWVVG | 4.53 |
| PVVSMFLDPQPITDEEEGLIWVVG | 2.36 |
| PVVSMILDPQPITDEEEGLIWVVG | 2.56 |
| PVVSMRLDPQPITDEEEGLIWVVG | 3.67 |
| PVVSMYLDPQPITDEEEGLIWVVG | 2.25 |
| PVVSMDLDWQPITDEEEGLIWVVG | 2.96 |
| PVVSMDLDFQPITDEEEGLIWVVG | 1.93 |
| PVVSMDLDNQPITDEEEGLIWVVG | 4.12 |
| PVVSMDLDCQPITDEEEGLIWVVG | 3.67 |
| PVVSMDLDGQPITDEEEGLIWVVG | 4.54 |
| PVVSMDLDRQPITDEEEGLIWVVG | 3.58 |
| PVVSMDLDYQPITDEEEGLIWVVG | 3.41 |

| Variant | protein stability index |
| --- | --- |
| PVVSMDLDVQPITDEEEGLIWVVG | 3.19 |
| PVVSMDLDDQPITDEEEGLIWVVG | 4.52 |
| PVVSMDLDAQPITDEEEGLIWVVG | 2.88 |
| PVVSMDLDIQPITDEEEGLIWVVG | 3.23 |
| PVVSMDLDQQPITDEEEGLIWVVG | 4.05 |
| PVVSMDLDKQPITDEEEGLIWVVG | 3.71 |
| PVVSMDLDTQPITDEEEGLIWVVG | 4.18 |
| PVVSKDLDPQPITDEEEGLIWVVG | 4.64 |
| PVVSSDLDPQPITDEEEGLIWVVG | 3.77 |
| PVVSGDLDPQPITDEEEGLIWVVG | 5.16 |
| PVVSFDLDPQPITDEEEGLIWVVG | 3.48 |
| PVVSRDLDPQPITDEEEGLIWVVG | 4.31 |
| PVVSYDLDPQPITDEEEGLIWVVG | 3.54 |
| PVVSWDLDPQPITDEEEGLIWVVG | 3.51 |
| PVVSDDLDPQPITDEEEGLIWVVG | 4.71 |
| PVVSNDLDPQPITDEEEGLIWVVG | 4.7 |
| PVVSHDLDPQPITDEEEGLIWVVG | 4.66 |
| PVVSLDLDPQPITDEEEGLIWVVG | 3.97 |
| PVVSVDLDPQPITDEEEGLIWVVG | 3.92 |
| PVVSQDLDPQPITDEEEGLIWVVG | 4.62 |
| PVVSTDLDPQPITDEEEGLIWVVG | 4.01 |
| PVVSMDLCPQPITDEEEGLIWVVG | 2.61 |
| PVVSMDLEPQPITDEEEGLIWVVG | 3.92 |
| PVVSMDLMPQPITDEEEGLIWVVG | 3.29 |

| Variant | protein stability index |
| --- | --- |
| PVVSMDLHPQPITDEEEGLIWVVG | 2.1 |
| PVVSMDLNPQPITDEEEGLIWVVG | 3.55 |
| PVVSMDLIPQPITDEEEGLIWVVG | 2.53 |
| PVVSMDLLPQPITDEEEGLIWVVG | 3.31 |
| PVVSMDLWPQPITDEEEGLIWVVG | 2.52 |
| PVVSMDLTPQPITDEEEGLIWVVG | 3.61 |
| PVVSMDLGPQPITDEEEGLIWVVG | 3.8 |
| PVVSMDLYPQPITDEEEGLIWVVG | 2.74 |
| PVVSMDLVPQPITDEEEGLIWVVG | 3.25 |
| PVVSMDLAPQPITDEEEGLIWVVG | 3.73 |
| PVVSMDLPPQPITDEEEGLIWVVG | 3.56 |
| PVVSMDLDPQAITDEEEGLIWVVG | 4.67 |
| PVVSMDLDPQHITDEEEGLIWVVG | 3.8 |
| PVVSMDLDPQFITDEEEGLIWVVG | 3.25 |
| PVVSMDLDPQCITDEEEGLIWVVG | 3.36 |
| PVVSMDVDPQPITDEEEGLIWVVG | 4.01 |
| PVVSMDADPQPITDEEEGLIWVVG | 4.31 |
| PVVSMDCDPQPITDEEEGLIWVVG | 3.54 |
| PVVSMDNDPQPITDEEEGLIWVVG | 4.74 |
| PVVSMDMDPQPITDEEEGLIWVVG | 3.29 |
| PVVSMDTDPQPITDEEEGLIWVVG | 2.63 |
| PVVSMDPDPQPITDEEEGLIWVVG | 3.4 |
| PVVSMDEDPQPITDEEEGLIWVVG | 4.89 |
| PVVSMDIDPQPITDEEEGLIWVVG | 3.94 |

| Variant | protein stability index |
| --- | --- |
| PVVSMDYDPQPITDEEEGLIWVVG | 4.27 |
| PVVSMDHDPQPITDEEEGLIWVVG | 3.48 |
| PVVSMDSDPQPITDEEEGLIWVVG | 4.33 |
| PVVSMDWDPQPITDEEEGLIWVVG | 3.52 |
| PVVSMDRDPQPITDEEEGLIWVVG | 4.4 |
| PVVSMDGDPQPITDEEEGLIWVVG | 4.87 |
| PVVSMDFDPQPITDEEEGLIWVVG | 4.79 |
| PVVSMDLDPGPITDEEEGLIWVVG | 3.99 |
| PVVSMDLDPNPITDEEEGLIWVVG | 3.42 |
| PVVSMDLDPIPITDEEEGLIWVVG | 4.09 |
| PVVSMDLDPPPITDEEEGLIWVVG | 3.75 |
| PVVSMDLDPDPITDEEEGLIWVVG | 4.27 |
| PVVSMDLDPCPITDEEEGLIWVVG | 3.08 |
| PVVSMDLDPMPITDEEEGLIWVVG | 3.88 |
| PVVSMDLDPRPITDEEEGLIWVVG | 3.89 |
| PVVSMDLDPSPITDEEEGLIWVVG | 2.77 |
| PVVSMDLDPLPITDEEEGLIWVVG | 3.74 |
| PVVSMDLDPKPITDEEEGLIWVVG | 3.76 |
| PVVSMDLDPAPITDEEEGLIWVVG | 3.56 |
| PVVSMDLDPTPITDEEEGLIWVVG | 3.73 |
| PVVSMDLDPYPITDEEEGLIWVVG | 2.92 |
| PVVSMDLDPWPITDEEEGLIWVVG | 3.8 |

— the supplement of paper PMC10567573
